Blank lines part the entries; values can stand above or below the binder they belong to.
Key:
Experiment in all cases: two-hybrid library CCNG1;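 note: natural log of median RNA to DNA barcode read ratio; higher means stronger binding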
4H1804-bN = target: T1, 4H1804-bN
T1 chain: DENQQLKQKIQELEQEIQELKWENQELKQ

4H3631-bN = target: T2, 4H3631-bN
T2 chain: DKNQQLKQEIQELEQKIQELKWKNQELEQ

4H3129-bN = target: T3, 4H3129-bN
T3 chain: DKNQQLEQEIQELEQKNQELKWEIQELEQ

4H1449-bN = target: T4, 4H1449-bN
T4 chain: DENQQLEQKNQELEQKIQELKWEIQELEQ

4H570-bN = target: T5, 4H570-bN
T5 chain: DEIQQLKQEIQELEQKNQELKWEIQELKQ

4H1393-bN = target: T6, 4H1393-bN
T6 chain: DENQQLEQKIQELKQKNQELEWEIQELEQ

4H3414-bN = target: T7, 4H3414-bN
T7 chain: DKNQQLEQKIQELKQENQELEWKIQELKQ

4H850-bN = target: T8, 4H850-bN
T8 chain: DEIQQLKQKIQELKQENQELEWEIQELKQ

4H3172-bN = target: T9, 4H3172-bN
T9 chain: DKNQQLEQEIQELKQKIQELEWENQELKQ

4H3638-bN = target: T10, 4H3638-bN
T10 chain: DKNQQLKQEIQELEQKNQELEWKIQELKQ

4H3817-bN = target: T11, 4H3817-bN
T11 chain: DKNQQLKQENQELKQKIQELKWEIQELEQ

4H1710-bN = target: T12, 4H1710-bN
T12 chain: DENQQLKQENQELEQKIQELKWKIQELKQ

4H619-bN = target: T13, 4H619-bN
T13 chain: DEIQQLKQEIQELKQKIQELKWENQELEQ

4H3974-bN = target: T14, 4H3974-bN
T14 chain: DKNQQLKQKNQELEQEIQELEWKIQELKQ

4H1985-bN = target: T15, 4H1985-bN
T15 chain: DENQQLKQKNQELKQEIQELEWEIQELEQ

4H850-bA = target: T16, 4H850-bA
T16 chain: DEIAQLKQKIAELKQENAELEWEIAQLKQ

4H584-bN = target: T17, 4H584-bN
T17 chain: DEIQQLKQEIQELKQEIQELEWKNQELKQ

4H906-bN = target: T18, 4H906-bN
T18 chain: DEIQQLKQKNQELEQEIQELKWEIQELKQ

4H1629-bN = target: T19, 4H1629-bN
T19 chain: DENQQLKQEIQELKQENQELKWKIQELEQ

4H72-bN = target: T20, 4H72-bN
T20 chain: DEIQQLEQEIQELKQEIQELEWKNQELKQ

4H568-bN = target: T21, 4H568-bN
T21 chain: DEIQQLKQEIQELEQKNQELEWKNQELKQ

4H2729-bN = target: T22, 4H2729-bN
T22 chain: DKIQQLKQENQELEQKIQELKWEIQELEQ

4H3782-bN = target: T23, 4H3782-bN
T23 chain: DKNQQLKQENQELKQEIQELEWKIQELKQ

4H3354-bN = target: T24, 4H3354-bN
T24 chain: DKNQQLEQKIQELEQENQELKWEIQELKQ

4H462-bN = target: T25, 4H462-bN
T25 chain: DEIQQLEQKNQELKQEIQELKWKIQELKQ

4H2576-bN = target: T26, 4H2576-bN
T26 chain: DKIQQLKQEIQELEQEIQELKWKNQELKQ

4H338-bN = target: T27, 4H338-bN
T27 chain: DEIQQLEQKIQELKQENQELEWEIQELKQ

4H797-bN = target: T28, 4H797-bN
T28 chain: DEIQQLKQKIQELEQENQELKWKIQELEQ

4H3843-bN = target: T29, 4H3843-bN
T29 chain: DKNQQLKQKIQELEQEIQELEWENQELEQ

4H454-bN = target: T30, 4H454-bN
T30 chain: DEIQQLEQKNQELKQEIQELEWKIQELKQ

4H1828-bN = target: T31, 4H1828-bN
T31 chain: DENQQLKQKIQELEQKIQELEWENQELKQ

4H1845-bN = target: T32, 4H1845-bN
T32 chain: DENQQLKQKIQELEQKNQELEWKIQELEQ

4H4001-bN = target: T33, 4H4001-bN
T33 chain: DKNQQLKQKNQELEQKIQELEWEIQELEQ

4H717-bN = target: T34, 4H717-bN
T34 chain: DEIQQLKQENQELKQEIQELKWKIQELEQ

4H370-bN = target: T35, 4H370-bN
T35 chain: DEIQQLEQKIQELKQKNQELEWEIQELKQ

4H331-bN = target: T36, 4H331-bN
T36 chain: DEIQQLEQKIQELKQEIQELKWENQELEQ

4H967-bN = target: T37, 4H967-bN
T37 chain: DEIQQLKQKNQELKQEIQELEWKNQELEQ

4H3189-bN = target: T38, 4H3189-bN
T38 chain: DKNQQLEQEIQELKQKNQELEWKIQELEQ

4H2618-bN = target: T39, 4H2618-bN
T39 chain: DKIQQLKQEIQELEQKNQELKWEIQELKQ

4H3855-bN = target: T40, 4H3855-bN
T40 chain: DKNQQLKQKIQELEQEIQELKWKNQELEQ

4H2697-bN = target: T41, 4H2697-bN
T41 chain: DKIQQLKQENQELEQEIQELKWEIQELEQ

4H2610-bN = target: T42, 4H2610-bN
T42 chain: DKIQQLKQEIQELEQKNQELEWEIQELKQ

4H2667-bN = target: T43, 4H2667-bN
T43 chain: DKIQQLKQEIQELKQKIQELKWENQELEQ

4H2442-bN = target: T44, 4H2442-bN
T44 chain: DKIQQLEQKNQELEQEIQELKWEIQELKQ

4H3185-bN = target: T45, 4H3185-bN
T45 chain: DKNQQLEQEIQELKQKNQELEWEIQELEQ

4H918-bN = target: T46, 4H918-bN
T46 chain: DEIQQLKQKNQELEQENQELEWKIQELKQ

4H3112-bN = target: T47, 4H3112-bN
T47 chain: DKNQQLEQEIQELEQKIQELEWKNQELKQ

4H754-bN = target: T48, 4H754-bN
T48 chain: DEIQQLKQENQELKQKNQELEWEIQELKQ

4H953-bN = target: T49, 4H953-bN
T49 chain: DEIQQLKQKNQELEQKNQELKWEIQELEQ

4H883-bN = target: T50, 4H883-bN
T50 chain: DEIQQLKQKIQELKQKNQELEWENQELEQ

4H607-bN = target: T51, 4H607-bN
T51 chain: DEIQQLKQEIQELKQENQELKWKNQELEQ

4H3606-bN = target: T52, 4H3606-bN
T52 chain: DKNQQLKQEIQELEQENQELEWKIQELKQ

4H687-bN = target: T53, 4H687-bN
T53 chain: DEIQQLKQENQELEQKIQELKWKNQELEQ

4H1446-bN = target: T54, 4H1446-bN
T54 chain: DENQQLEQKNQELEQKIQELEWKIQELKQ

4H3427-bN = target: T55, 4H3427-bN
T55 chain: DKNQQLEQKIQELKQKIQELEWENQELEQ

4H908-bN = target: T56, 4H908-bN
T56 chain: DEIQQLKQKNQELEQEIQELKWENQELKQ

interaction score (4H1804-bN): -0.711 | interaction score (4H3631-bN): -1.03 | interaction score (4H3129-bN): -0.903 | interaction score (4H1449-bN): -0.996 | interaction score (4H570-bN): -2.48 | interaction score (4H1393-bN): -1.33 | interaction score (4H3414-bN): -1.76 | interaction score (4H850-bN): -1.57 | interaction score (4H3172-bN): -1.92 | interaction score (4H3638-bN): 0.818 | interaction score (4H3817-bN): -1.41 | interaction score (4H1710-bN): -1.7 | interaction score (4H619-bN): -0.97 | interaction score (4H3974-bN): -0.815 | interaction score (4H1985-bN): -1.58 | interaction score (4H850-bA): -0.881 | interaction score (4H584-bN): -2.15 | interaction score (4H906-bN): -0.497 | interaction score (4H1629-bN): -0.818
Binder: DENQQLEQKIQELKQKNQELEWEIQELEQ [4H1393-bN]

interaction score (4H72-bN): 0.548 | interaction score (4H568-bN): -0.0813 | interaction score (4H2729-bN): 0.529 | interaction score (4H3782-bN): -0.169 | interaction score (4H3354-bN): -0.558 | interaction score (4H462-bN): -1.74 | interaction score (4H2576-bN): 1.07 | interaction score (4H338-bN): -0.426 | interaction score (4H797-bN): -0.329 | interaction score (4H3843-bN): 1.05 | interaction score (4H454-bN): 0.124 | interaction score (4H1828-bN): 0.29 | interaction score (4H1845-bN): -1.65 | interaction score (4H4001-bN): 1.11 | interaction score (4H717-bN): -0.982 | interaction score (4H370-bN): -0.536 | interaction score (4H331-bN): 1.22 | interaction score (4H967-bN): -1.04 | interaction score (4H3189-bN): 0.67 | interaction score (4H2618-bN): -0.442 | interaction score (4H3855-bN): 0.333 | interaction score (4H2697-bN): -0.277 | interaction score (4H2610-bN): 0.732 | interaction score (4H2667-bN): 0.641 | interaction score (4H2442-bN): 0.215 | interaction score (4H3185-bN): 0.1 | interaction score (4H918-bN): 0.759 | interaction score (4H3112-bN): -0.24 | interaction score (4H754-bN): -0.286 | interaction score (4H953-bN): -0.0145 | interaction score (4H883-bN): -0.0261 | interaction score (4H607-bN): 0.502 | interaction score (4H3606-bN): -0.294 | interaction score (4H687-bN): -0.229 | interaction score (4H1446-bN): 0.223 | interaction score (4H3427-bN): 0.852 | interaction score (4H908-bN): -0.254
Binder: DENQQLEQKNQELEQKIQELEWKIQELKQ [4H1446-bN]
